# Source: patent US20240376151A1, “STAPLED PEPTIDES AND METHODS THEREOF” (FOG PHARMACEUTICALS, INC., priority 2022, published 2024)
# Assays:
# [1] = system: Expi293 cells; assay: Measurement of the Cell Association of Helicons (mass spectrometry quantification in cells after treatment and wash); format: cell-based; settings: percentage of Helicons in cells after treatment and wash, 22 hours, n = 2, mean ± SD
# Experimental: All samples were analyzed using mass spectrometry.
# [2] = system: Expi293 cells; assay: CellTiter-Glo cell health (ATP levels) during cell association assay; format: cell-based; settings: reflective of cell health, luminescence Tfinal (22 hours) / Tinitial
# [3] = target: T1, CUL4B (Homo sapiens, UniProt Q13620, L520D/V516R); assay: Naive Library Presenter Screening (phage, NGS), CUL4B; format: binding; settings: for interaction data at Target Concentration 10: CUL4B target concentration 10 nM; for interaction data at Target Concentration 30: CUL4B target concentration 30 nM; for interaction data at Target Concentration 100: CUL4B target concentration 100 nM; for interaction data at Target Concentration 300: CUL4B target concentration 300 nM; for interaction data at Target Concentration 1000: CUL4B target concentration 1000 nM
# T1 construct: GST-TEV (N, cleaved yes); made in house; host or cells: E. coli BL21 CodonPlus
# T1 sequence (Q13620 206-557 V516R/L520D): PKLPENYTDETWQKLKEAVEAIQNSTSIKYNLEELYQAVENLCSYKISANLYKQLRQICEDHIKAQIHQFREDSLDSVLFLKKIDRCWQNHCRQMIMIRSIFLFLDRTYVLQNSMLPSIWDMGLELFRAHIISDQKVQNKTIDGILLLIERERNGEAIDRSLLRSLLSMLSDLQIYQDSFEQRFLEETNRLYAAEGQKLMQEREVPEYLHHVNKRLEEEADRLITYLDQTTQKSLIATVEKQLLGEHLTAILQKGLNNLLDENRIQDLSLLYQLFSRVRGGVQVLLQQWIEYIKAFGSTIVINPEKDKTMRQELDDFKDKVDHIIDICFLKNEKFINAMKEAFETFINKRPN
# [4] = target: T2, CUL1 (Homo sapiens, UniProt Q13616, L371D/V367R); assay: Naive Library Presenter Screening (phage, NGS), CUL1; format: binding; settings: for interaction data at Target Concentration 10: CUL1 target concentration 10 nM; for interaction data at Target Concentration 30: CUL1 target concentration 30 nM; for interaction data at Target Concentration 100: CUL1 target concentration 100 nM; for interaction data at Target Concentration 300: CUL1 target concentration 300 nM; for interaction data at Target Concentration 1000: CUL1 target concentration 1000 nM
# T2 construct: CUL1 (Uniprot ID: Q13616, residue 15-410, V367R/L371D); GST-TEV (N, cleaved yes); made in house; host or cells: E. coli BL21 CodonPlus
# T2 sequence (Q13616 15-410 V367R/L371D): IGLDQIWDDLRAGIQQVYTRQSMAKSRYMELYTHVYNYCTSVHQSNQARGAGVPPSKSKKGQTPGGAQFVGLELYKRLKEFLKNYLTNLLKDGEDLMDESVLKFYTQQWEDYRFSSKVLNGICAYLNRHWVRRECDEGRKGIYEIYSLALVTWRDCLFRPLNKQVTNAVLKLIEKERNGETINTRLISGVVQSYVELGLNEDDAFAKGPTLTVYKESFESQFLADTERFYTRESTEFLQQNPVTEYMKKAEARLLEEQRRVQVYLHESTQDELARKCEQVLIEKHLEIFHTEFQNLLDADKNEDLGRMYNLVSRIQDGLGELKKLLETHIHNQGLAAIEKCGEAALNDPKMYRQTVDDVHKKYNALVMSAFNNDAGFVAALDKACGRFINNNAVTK
Molecule,Helicon in cells ± SD (%) [1] [%],CellTiter-Glo fold change ± SD [2],interaction data at Target Concentration 10 [3],interaction data at Target Concentration 30 [3],interaction data at Target Concentration 100 [3],interaction data at Target Concentration 300 [3],interaction data at Target Concentration 1000 ([3]; first column),interaction data at Target Concentration 1000 ([3]; second column),interaction data at Target Concentration 10 [4],interaction data at Target Concentration 30 [4],interaction data at Target Concentration 100 [4],interaction data at Target Concentration 300 [4],interaction data at Target Concentration 1000 ([4]; first column),interaction data at Target Concentration 1000 ([4]; second column)
"CCCC[C@H](NC(=O)[C@@H](NC(C)=O)C(C)C)C(=O)N[C@@H](CCC(=O)O)C(=O)N[C@]1(C)CCCCCCC=CCCC[C@@](C)(C(=O)N[C@@H](Cc2c[nH]cn2)C(=O)N[C@@H](Cc2ccc(O)cc2)C(=O)N[C@H](C(N)=O)C(C)C)NC(=O)[C@H]([C@@H](C)CC)NC(=O)[C@H](Cc2ccccc2)NC(=O)[C@H](C)NC(=O)[C@H](C)NC(=O)[C@H](CCC(=O)O)NC(=O)[C@H](Cc2ccc(O)cc2)NC1=O (single isomer, unassigned) [FP07855, Ac-Val-nLeu-Glu-R8-Tyr-Glu-Ala-Ala-Phe-Ile-S5-His-Tyr-Val-NH2]",16.4 ± 0.6,1.2 ± 0.10,,,,,,,,,,,,
DPADRYCDMAAWVCERF,,,1,1,15,248,340,0,,,,,,
DPAEAACDIAALMCIID,,,,,,,,,15,13,65,211,203,195
DPAEFVCDWAALACLVD,,,,,,,,,4,32,183,247,517,300
DPAEMQCDYAAILCIVR,,,,,,,,,0,0,32,95,114,71
DPAEQECDHAALWCIVA,,,,,,,,,14,19,340,937,1137,743
DPAEQMCDIAAVWCLAH,,,,,,,,,0,0,35,135,151,88
DPAERHCQLAAWVCHQF,,,0,0,0,99,29,0,,,,,,
DPAEVHCDMAALYCIIR,,,,,,,,,3,7,65,242,366,119
DPAIIQCDQAALWCVVT,,,,,,,,,0,0,28,83,80,61
DPAMLQCDMAALWCMVS,,,,,,,,,1,3,77,64,143,126
DPAMNHCVLAAWVCDTF,,,0,0,6,37,9,0,,,,,,
DPAQILCDLAALYCVVE,,,,,,,,,0,7,61,73,111,119
DPAQNDCEVAAFFCWLD,,,,,,,,,1,1,233,428,586,468
DPAQRACQFAAWICERF,,,1,0,13,56,73,0,,,,,,
DPASRLCELAAWVCDSF,,,4,15,139,319,251,0,,,,,,
DPASRMCEMAAWFCENY,,,0,3,11,13,78,0,,,,,,
DPATRHCIFAAWACDRF,,,0,0,47,20,12,0,,,,,,
DPATRMCELAAWTCEVW,,,0,0,1,31,9,0,,,,,,
DPATTECILAAWICDRF,,,0,0,15,31,18,0,,,,,,
DPAVMECDWAATICDIF,,,,,,,,,0,2,154,402,477,419
DPAYDWCDVAALFCLVE,,,,,,,,,0,0,57,36,57,151
DPAYFACDIAALMCTVH,,,,,,,,,0,2,131,135,403,120
